PMC9172074, “A microfluidic paper analytical device using capture aptamers for the detection of PfLDH in blood matrices”

What was measured:
[1] = molecular target: T1, rPfLDH (recombinant Plasmodium falciparum lactate dehydrogenase) (Plasmodium falciparum, UniProt Q76NM3 1-316); assay: paper capture, Malstat enzyme activity colorimetry; Zone 3, apparent Kd; PBS pH 7.4 (10 mM Na2HPO4, 1.8 mM KH2PO4 [printed KH2HPO4], 2.7 mM KCl, 137 mM NaCl), room temperature, 30 min; pL1: 20 mM Tris, 50 mM NaCl, 5 mM KCl, 5 mM MgCl2, 0.01% Tween 20, pH 8.0; conditions: protein: recombinant; chain copies: 4; label: 5' biotin
[2] = molecular target: T1, rPfLDH (recombinant Plasmodium …); assay: paper capture, Malstat enzyme activity colorimetry; Zone 1, apparent Kd (fit 23.643 ± 10.806); PBS pH 7.4 (10 mM Na2HPO4, 1.8 mM KH2PO4 [printed KH2HPO4], 2.7 mM KCl, 137 mM NaCl), room temperature, 30 min; pL1: 20 mM Tris, 50 mM NaCl, 5 mM KCl, 5 mM MgCl2, 0.01% Tween 20, pH 8.0; conditions: protein: recombinant; chain copies: 4; label: 5' biotin

B1: rLDH7 (ssDNA)
DNA: GCCTGTTGTGAGCCTCCTAACCCAGAATAGGGACTGCTCGGGATTGCGGATGAGTCTGGGTGGGACATGGCATGCTTATTCTTGTCTCCC
B1 was tested, and the Kd [1] was 11.4 ± 5 nM and the Kd [2] was 24 ± 11 nM.
